Results from patent publication US20260167699A1 (Chugai, published 2026).

T1: FcγRIIa(H) extracellular domain, C-terminal His tag (human, UniProt P12318 34-217)
T1 construct: extracellular domain; also called 2aH
T1 sequence: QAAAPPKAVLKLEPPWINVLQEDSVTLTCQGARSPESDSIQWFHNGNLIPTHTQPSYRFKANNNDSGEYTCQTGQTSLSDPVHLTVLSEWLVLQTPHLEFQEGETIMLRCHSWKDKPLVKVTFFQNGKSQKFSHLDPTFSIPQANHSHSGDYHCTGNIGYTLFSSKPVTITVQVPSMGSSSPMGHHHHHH

T2: FcγRIIa(R) extracellular domain, C-terminal His tag (human, UniProt P12318 34-217)
T2 construct: extracellular domain; also called 2aR
T2 sequence: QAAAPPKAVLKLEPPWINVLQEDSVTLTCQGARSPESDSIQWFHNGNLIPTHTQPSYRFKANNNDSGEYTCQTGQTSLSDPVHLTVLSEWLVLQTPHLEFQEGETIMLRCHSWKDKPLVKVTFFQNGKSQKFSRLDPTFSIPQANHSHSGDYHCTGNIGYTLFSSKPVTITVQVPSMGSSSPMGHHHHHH

T3: FcγRIIb extracellular domain, C-terminal His tag (human, UniProt P31994 43-217)
T3 construct: extracellular domain; also called 2b
T3 sequence: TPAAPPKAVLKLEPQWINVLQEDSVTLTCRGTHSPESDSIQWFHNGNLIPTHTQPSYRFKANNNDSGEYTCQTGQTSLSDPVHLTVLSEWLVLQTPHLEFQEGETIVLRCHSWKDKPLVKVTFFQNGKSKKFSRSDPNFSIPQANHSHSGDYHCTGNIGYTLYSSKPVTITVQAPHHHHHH


Experiments:
Assay in all cases: SPR; He Ab vs HeCon Ab (GpH7-A5/GpH7-B3/GpL16-k0)=100;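 also: surface plasmon resonance at 25 °C with the test antibody captured on a sensor chip via antigenic peptide, protein L or protein A/G and FcγR flowed over as analyte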
[1] = target: T4, FcγRIIIa extracellular domain, C-terminal His tag (human, UniProt P08637 17-208)
T4 construct: extracellular domain; also called 3a
T4 sequence (P08637 other isoform, or with tags, fused parts or gaps): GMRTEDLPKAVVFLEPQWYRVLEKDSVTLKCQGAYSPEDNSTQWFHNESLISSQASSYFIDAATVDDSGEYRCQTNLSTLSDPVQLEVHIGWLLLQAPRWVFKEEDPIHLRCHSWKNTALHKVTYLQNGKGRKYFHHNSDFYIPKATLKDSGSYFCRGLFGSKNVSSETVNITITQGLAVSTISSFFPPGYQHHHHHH
Procedure: (§1) The antibody of interest was analyzed for its interaction with FcγR using a BiaCore™ T100, BiaCore™ A100, or BiaCore™ 4000 surface plasmon resonance system (GE Healthcare Japan Corp.). The running buffer used was HBS-EP+ (GE Healthcare Japan Corp.). The assay temperature was set to 25° C. The sensor chips used were: a chip prepared by immobilizing antigenic peptides onto Series S Sensor Chip CM5 (GE Healthcare Japan Corp.) by the amine coupling method; a chip prepared by immobilizing antigenic peptides biotinylated in advance onto Series S Sensor Chip SA (certified) (GE Healthcare Japan Corp.) through their interaction; a chip prepared by immobilizing protein L (ACTIGEN, BioVision, Inc.) onto Series S Sensor Chip CM5 (GE Healthcare Japan Corp.); and a chip prepared by immobilizing protein A/G (Thermo Fisher Scientific K.K.) onto Series S Sensor Chip CM5 (GE Healthcare Japan Corp.). The antibody of interest was captured onto any of these chips and allowed to interact with FcγR diluted with a running buffer. The antibody captured on the chip was washed off through the reaction of 10 mM glycine-HCl (pH 1.5) to regenerate the chip, which was repetitively used.

[2] = target: T1, FcγRIIa(H) extracellular domain, …
Procedure: as §1

[3] = target: T2, FcγRIIa(R) extracellular domain, …
Procedure: as §1

[4] = target: T3, FcγRIIb extracellular domain, …
Procedure: as §1

[5] = target: T5, FcγRIa extracellular domain, C-terminal His tag (human, UniProt P12314 16-292)
T5 construct: extracellular domain; also called 1a
T5 sequence (P12314 other isoform, or with tags, fused parts or gaps): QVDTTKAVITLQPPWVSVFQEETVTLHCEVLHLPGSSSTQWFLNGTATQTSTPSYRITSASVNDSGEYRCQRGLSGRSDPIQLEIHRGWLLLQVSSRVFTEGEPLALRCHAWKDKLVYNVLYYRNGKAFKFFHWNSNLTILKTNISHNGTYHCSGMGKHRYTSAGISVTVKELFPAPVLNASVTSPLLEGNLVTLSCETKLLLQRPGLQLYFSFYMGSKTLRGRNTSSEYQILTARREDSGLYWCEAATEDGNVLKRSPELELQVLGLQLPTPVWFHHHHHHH
Procedure: as §1

| He/Con 3a [1] [%] | He/Con 2aH [2] [%] | He/Con 2aR [3] [%] | He/Con 2b [4] [%] | He/Con 1a [5] [%] | Binder |
| --- | --- | --- | --- | --- | --- |
| 89 | 102 | 101 | 100 | 103 | GpH7-A5/GpH7-B3 variant Y296_09D/GpL16-k0 (antibody, human IgG1, kappa, heterodimerized IgG1, one H chain mutated; also called He Ab; copies: 1 + 1 + 2) heavy 1: not shown heavy 2: not shown light: DIVMTQSPLSLPVTPGEPASISCQASESLVHSNRNTYLHWYLQKPGQSPQLLIYKVSNRFSGVPDRFSGSGSGTDFTLKISRVEAEDVGVYYCSQNTHVPPTFGQGTKVEIERTVAAPSVFIFPPSDEQLKSGTASVVCLLNNFYPREAKVQWKVDNALQSGNSQESVTEQDSKDSTYSLSSTLTLSKADYEKHKVYACEVTHQGLSSPVTKSFNRGEC |
| 71.4 | 94.3 | 97.9 | 90.5 | 108 | GpH7-A5/GpH7-B3 variant Y296_19Q/GpL16-k0 (antibody, human IgG1, kappa, heterodimerized IgG1, one H chain mutated; also called He Ab; copies: 1 + 1 + 2) heavy 1: not shown heavy 2: not shown light: DIVMTQSPLSLPVTPGEPASISCQASESLVHSNRNTYLHWYLQKPGQSPQLLIYKVSNRFSGVPDRFSGSGSGTDFTLKISRVEAEDVGVYYCSQNTHVPPTFGQGTKVEIERTVAAPSVFIFPPSDEQLKSGTASVVCLLNNFYPREAKVQWKVDNALQSGNSQESVTEQDSKDSTYSLSSTLTLSKADYEKHKVYACEVTHQGLSSPVTKSFNRGEC |
| 67.9 | 101 | 99.6 | 92.8 | 102 | GpH7-A5/GpH7-B3 variant Y296_18N/GpL16-k0 (antibody, human IgG1, kappa, heterodimerized IgG1, one H chain mutated; also called He Ab; copies: 1 + 1 + 2) heavy 1: not shown heavy 2: not shown light: DIVMTQSPLSLPVTPGEPASISCQASESLVHSNRNTYLHWYLQKPGQSPQLLIYKVSNRFSGVPDRFSGSGSGTDFTLKISRVEAEDVGVYYCSQNTHVPPTFGQGTKVEIERTVAAPSVFIFPPSDEQLKSGTASVVCLLNNFYPREAKVQWKVDNALQSGNSQESVTEQDSKDSTYSLSSTLTLSKADYEKHKVYACEVTHQGLSSPVTKSFNRGEC |
| 69.1 | 101 | 100 | 93.5 | 103 | GpH7-A5/GpH7-B3 variant Y296_16H/GpL16-k0 (antibody, human IgG1, kappa, heterodimerized IgG1, one H chain mutated; also called He Ab; copies: 1 + 1 + 2) heavy 1: not shown heavy 2: not shown light: DIVMTQSPLSLPVTPGEPASISCQASESLVHSNRNTYLHWYLQKPGQSPQLLIYKVSNRFSGVPDRFSGSGSGTDFTLKISRVEAEDVGVYYCSQNTHVPPTFGQGTKVEIERTVAAPSVFIFPPSDEQLKSGTASVVCLLNNFYPREAKVQWKVDNALQSGNSQESVTEQDSKDSTYSLSSTLTLSKADYEKHKVYACEVTHQGLSSPVTKSFNRGEC |
| 127 | 95.4 | 105 | 105 | 107 | GpH7-A5/GpH7-B3 variant Y296_20W/GpL16-k0 (antibody, human IgG1, kappa, heterodimerized IgG1, one H chain mutated; also called He Ab; copies: 1 + 1 + 2) heavy 1: not shown heavy 2: not shown light: DIVMTQSPLSLPVTPGEPASISCQASESLVHSNRNTYLHWYLQKPGQSPQLLIYKVSNRFSGVPDRFSGSGSGTDFTLKISRVEAEDVGVYYCSQNTHVPPTFGQGTKVEIERTVAAPSVFIFPPSDEQLKSGTASVVCLLNNFYPREAKVQWKVDNALQSGNSQESVTEQDSKDSTYSLSSTLTLSKADYEKHKVYACEVTHQGLSSPVTKSFNRGEC |
| 58.1 | 96.1 | 97.5 | 87.5 | 102 | GpH7-A5/GpH7-B3 variant Y296_13S/GpL16-k0 (antibody, human IgG1, kappa, heterodimerized IgG1, one H chain mutated; also called He Ab; copies: 1 + 1 + 2) heavy 1: not shown heavy 2: not shown light: DIVMTQSPLSLPVTPGEPASISCQASESLVHSNRNTYLHWYLQKPGQSPQLLIYKVSNRFSGVPDRFSGSGSGTDFTLKISRVEAEDVGVYYCSQNTHVPPTFGQGTKVEIERTVAAPSVFIFPPSDEQLKSGTASVVCLLNNFYPREAKVQWKVDNALQSGNSQESVTEQDSKDSTYSLSSTLTLSKADYEKHKVYACEVTHQGLSSPVTKSFNRGEC |
| 88.6 | 82.6 | 66.6 | 63.2 | 110 | GpH7-A5/GpH7-B3 variant Y300_01G/GpL16-k0 (antibody, human IgG1, kappa, heterodimerized IgG1, one H chain mutated; also called He Ab; copies: 1 + 1 + 2) heavy 1: not shown heavy 2: not shown light: DIVMTQSPLSLPVTPGEPASISCQASESLVHSNRNTYLHWYLQKPGQSPQLLIYKVSNRFSGVPDRFSGSGSGTDFTLKISRVEAEDVGVYYCSQNTHVPPTFGQGTKVEIERTVAAPSVFIFPPSDEQLKSGTASVVCLLNNFYPREAKVQWKVDNALQSGNSQESVTEQDSKDSTYSLSSTLTLSKADYEKHKVYACEVTHQGLSSPVTKSFNRGEC |
| 83.8 | 109 | 96.8 | 96.5 | 110 | GpH7-A5/GpH7-B3 variant Y300_03V/GpL16-k0 (antibody, human IgG1, kappa, heterodimerized IgG1, one H chain mutated; also called He Ab; copies: 1 + 1 + 2) heavy 1: not shown heavy 2: not shown light: DIVMTQSPLSLPVTPGEPASISCQASESLVHSNRNTYLHWYLQKPGQSPQLLIYKVSNRFSGVPDRFSGSGSGTDFTLKISRVEAEDVGVYYCSQNTHVPPTFGQGTKVEIERTVAAPSVFIFPPSDEQLKSGTASVVCLLNNFYPREAKVQWKVDNALQSGNSQESVTEQDSKDSTYSLSSTLTLSKADYEKHKVYACEVTHQGLSSPVTKSFNRGEC |
| 76.8 | 94 | 98.2 | 99.4 | 102 | GpH7-A5/GpH7-B3 variant Y296_10E/GpL16-k0 (antibody, human IgG1, kappa, heterodimerized IgG1, one H chain mutated; also called He Ab; copies: 1 + 1 + 2) heavy 1: not shown heavy 2: not shown light: DIVMTQSPLSLPVTPGEPASISCQASESLVHSNRNTYLHWYLQKPGQSPQLLIYKVSNRFSGVPDRFSGSGSGTDFTLKISRVEAEDVGVYYCSQNTHVPPTFGQGTKVEIERTVAAPSVFIFPPSDEQLKSGTASVVCLLNNFYPREAKVQWKVDNALQSGNSQESVTEQDSKDSTYSLSSTLTLSKADYEKHKVYACEVTHQGLSSPVTKSFNRGEC |
| 53.3 | 83.7 | 90.3 | 73.8 | 102 | GpH7-A5/GpH7-B3 variant Y296_11K/GpL16-k0 (antibody, human IgG1, kappa, heterodimerized IgG1, one H chain mutated; also called He Ab; copies: 1 + 1 + 2) heavy 1: not shown heavy 2: not shown light: DIVMTQSPLSLPVTPGEPASISCQASESLVHSNRNTYLHWYLQKPGQSPQLLIYKVSNRFSGVPDRFSGSGSGTDFTLKISRVEAEDVGVYYCSQNTHVPPTFGQGTKVEIERTVAAPSVFIFPPSDEQLKSGTASVVCLLNNFYPREAKVQWKVDNALQSGNSQESVTEQDSKDSTYSLSSTLTLSKADYEKHKVYACEVTHQGLSSPVTKSFNRGEC |
| 66.5 | 89.1 | 95.3 | 80.5 | 103 | GpH7-A5/GpH7-B3 variant Y296_12R/GpL16-k0 (antibody, human IgG1, kappa, heterodimerized IgG1, one H chain mutated; also called He Ab; copies: 1 + 1 + 2) heavy 1: not shown heavy 2: not shown light: DIVMTQSPLSLPVTPGEPASISCQASESLVHSNRNTYLHWYLQKPGQSPQLLIYKVSNRFSGVPDRFSGSGSGTDFTLKISRVEAEDVGVYYCSQNTHVPPTFGQGTKVEIERTVAAPSVFIFPPSDEQLKSGTASVVCLLNNFYPREAKVQWKVDNALQSGNSQESVTEQDSKDSTYSLSSTLTLSKADYEKHKVYACEVTHQGLSSPVTKSFNRGEC |
| 88.1 | 104 | 92.9 | 90.5 | 106 | GpH7-A5/GpH7-B3 variant Y300_02A/GpL16-k0 (antibody, human IgG1, kappa, heterodimerized IgG1, one H chain mutated; also called He Ab; copies: 1 + 1 + 2) heavy 1: not shown heavy 2: not shown light: DIVMTQSPLSLPVTPGEPASISCQASESLVHSNRNTYLHWYLQKPGQSPQLLIYKVSNRFSGVPDRFSGSGSGTDFTLKISRVEAEDVGVYYCSQNTHVPPTFGQGTKVEIERTVAAPSVFIFPPSDEQLKSGTASVVCLLNNFYPREAKVQWKVDNALQSGNSQESVTEQDSKDSTYSLSSTLTLSKADYEKHKVYACEVTHQGLSSPVTKSFNRGEC |
| 60.7 | 97.2 | 98.6 | 89.4 | 102 | GpH7-A5/GpH7-B3 variant Y296_14T/GpL16-k0 (antibody, human IgG1, kappa, heterodimerized IgG1, one H chain mutated; also called He Ab; copies: 1 + 1 + 2) heavy 1: not shown heavy 2: not shown light: DIVMTQSPLSLPVTPGEPASISCQASESLVHSNRNTYLHWYLQKPGQSPQLLIYKVSNRFSGVPDRFSGSGSGTDFTLKISRVEAEDVGVYYCSQNTHVPPTFGQGTKVEIERTVAAPSVFIFPPSDEQLKSGTASVVCLLNNFYPREAKVQWKVDNALQSGNSQESVTEQDSKDSTYSLSSTLTLSKADYEKHKVYACEVTHQGLSSPVTKSFNRGEC |
| 100 | 103 | 103 | 106 | 102 | GpH7-A5/GpH7-B3 variant Y300_04F/GpL16-k0 (antibody, human IgG1, kappa, heterodimerized IgG1, one H chain mutated; also called He Ab; copies: 1 + 1 + 2) heavy 1: not shown heavy 2: not shown light: DIVMTQSPLSLPVTPGEPASISCQASESLVHSNRNTYLHWYLQKPGQSPQLLIYKVSNRFSGVPDRFSGSGSGTDFTLKISRVEAEDVGVYYCSQNTHVPPTFGQGTKVEIERTVAAPSVFIFPPSDEQLKSGTASVVCLLNNFYPREAKVQWKVDNALQSGNSQESVTEQDSKDSTYSLSSTLTLSKADYEKHKVYACEVTHQGLSSPVTKSFNRGEC |
| 106 | 116 | 105 | 110 | 106 | GpH7-A5/GpH7-B3 variant Y300_06M/GpL16-k0 (antibody, human IgG1, kappa, heterodimerized IgG1, one H chain mutated; also called He Ab; copies: 1 + 1 + 2) heavy 1: not shown heavy 2: not shown light: DIVMTQSPLSLPVTPGEPASISCQASESLVHSNRNTYLHWYLQKPGQSPQLLIYKVSNRFSGVPDRFSGSGSGTDFTLKISRVEAEDVGVYYCSQNTHVPPTFGQGTKVEIERTVAAPSVFIFPPSDEQLKSGTASVVCLLNNFYPREAKVQWKVDNALQSGNSQESVTEQDSKDSTYSLSSTLTLSKADYEKHKVYACEVTHQGLSSPVTKSFNRGEC |
